We go through one molecule from US20040259198A1, “Purified and isolated mat II beta subunit nucleic acids and polypeptides and therapeutic and screening methods using same” (priority 1999, published 2004).

Where two headings read alike, the source gives them in different places.

A short description of data set [1]: MAT assay of recombinant MAT II β subunit protein alone. The class given is biochemical.
Procedure: MAT activity was assayed as previously described (22,29,31). The assay contained 5-120 μM L-methionine (L-Met), 5 mM ATP in 50 mM TES buffer, pH 7.4,50 mM KCl, 15 mM MgCl2, 0.3 mM EDTA, and 4 mM DTT. The L-Met concentration was varied as indicated in the kinetic analysis. One unit (U) of MAT activity is defined as the amount of enzyme that catalyzes the formation of 1 nmol of AdoMet in 1 hour.
Data set [2] addresses E. coli MAT α protein (Escherichia coli, UniProt P0A817). The note with it: Ni-NTA agarose, native conditions. Here is the method: The MAT II β expression clone, Clone 5, was inoculated into one liter of LB broth containing 25 μg/ml kanamycin and 100 μg/ml ampicillin, then incubated with shaking at 37° C. until an OD600 of 0.5-0.7 was reached. IPTG (Sigma) was added to a final concentration of 1 mM, and the culture was allowed to incubate for an additional 4 hours under the same conditions. […] The first, involved purification of the His-tagged protein under denaturing conditions of 8M urea, and the second involved separation of SDS-PAGE and elution of the β subunit protein from the gel.

Data set [3] has as its system MAT II. Briefly: MAT activity and kinetics in extracts of transfected Cos-1 cells. In kind it is biochemical, African green monkey. The method, then: Transfection of Cos-1 cells with pTargeT™/MAT2A or pTargeT™/MAT2B was done using the cationic lipid reagent, Transfast™ (Promega). Preliminary experiments were carried out to optimize the transfection conditions. Typically, 1.5×10^6 cells were plated in 100 mm dish one day prior to transfection. For each plate, […] of vector DNA was applied in the ratio of 1:1 to Transfast™ in a protein-free medium for 2 h. For cells co-transfected with both α2 and β vectors, […] DNA from each was used. For each experiment, one untransfected plate served as a normal control, and a second plate was transfected with the pTargeT™ vector only (mock-transfected cells). After 48 h, cells were harvested by trypsinization with a solution containing 0.05% trypsin and 0.53 mM EDTA in Hank's balanced salt solution (HBSS, from Cellgro). Trypsinization was stopped by the addition of media supplemented with 10% FCS, cells were pelleted, washed three times in 1 ml HBSS, counted, then resuspended in 1× extraction buffer with protease inhibitors (50 mM Tris, pH 7.4, 100 mM NaCl, 5 mM MgCl2, 4 mM dithiothreitol, 0.1 IU/ml aprotinin, 0.5 mM PMSF and […] soybean trypsin inhibitor). Cells were lysed by three cycles of quick freezing and thawing, and the lysate was clarified by centrifugation at 15,000×g for 10 min at 4° C. If not immediately used; cell extracts were stored at −80° C. Protein assays were performed using the bicinchoninic acid reagent (Sigma) following the manufacturer instructions.
MAT activity in cell extracts was assayed as previously described (Kotb, M., and Kredich, N. M. (1985) J. Biol. Chem. 260, 3923-30). […] The concentration of L-Met was varied between […] using ^14C-L-Met (57.9 mCi/mmol) to a concentration of up to […], and supplementary with cold L-Met for higher concentrations.

Chain of E. coli MAT α protein (Q9NZL9 whole entry): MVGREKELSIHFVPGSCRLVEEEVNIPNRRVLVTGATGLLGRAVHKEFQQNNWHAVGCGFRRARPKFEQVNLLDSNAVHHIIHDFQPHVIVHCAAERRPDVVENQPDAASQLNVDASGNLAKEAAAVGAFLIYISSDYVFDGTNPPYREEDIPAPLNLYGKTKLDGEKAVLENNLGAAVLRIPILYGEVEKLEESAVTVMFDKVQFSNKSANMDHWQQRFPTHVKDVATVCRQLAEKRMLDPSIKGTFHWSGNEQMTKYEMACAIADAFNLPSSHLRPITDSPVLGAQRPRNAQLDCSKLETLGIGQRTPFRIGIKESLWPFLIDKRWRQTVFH
Chain of E. coli MAT α protein (P0A817 2-384): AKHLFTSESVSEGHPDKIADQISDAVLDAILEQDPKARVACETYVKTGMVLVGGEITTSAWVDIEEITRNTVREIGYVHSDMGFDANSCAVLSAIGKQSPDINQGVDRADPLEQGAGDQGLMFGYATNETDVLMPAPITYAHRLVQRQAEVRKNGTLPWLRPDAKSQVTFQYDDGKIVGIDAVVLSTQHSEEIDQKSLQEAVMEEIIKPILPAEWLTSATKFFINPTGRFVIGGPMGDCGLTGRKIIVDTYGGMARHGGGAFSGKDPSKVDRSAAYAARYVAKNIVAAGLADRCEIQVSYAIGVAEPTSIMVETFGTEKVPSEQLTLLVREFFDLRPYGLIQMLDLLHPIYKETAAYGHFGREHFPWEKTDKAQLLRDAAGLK

B1: MAT II β subunit: recombinant regulatory β subunit of human methionine adenosyltransferase II, 334 amino acids, expressed in E. coli or Cos-1 cells (protein, UniProt Q9NZL9 2-334, looked up)
Methionine …: VGREKELSIHFVPGSCRLVEEEVNIPNRRVLVTGATGLLGRAVHKEFQQNNWHAVGCGFRRARPKFEQVNLLDSNAVHHIIHDFQPHVIVHCAAERRPDVVENQPDAASQLNVDASGNLAKEAAAVGAFLIYISSDYVFDGTNPPYREEDIPAPLNLYGKTKLDGEKAVLENNLGAAVLRIPILYGEVEKLEESAVTVMFDKVQFSNKSANMDHWQQRFPTHVKDVATVCRQLAEKRMLDPSIKGTFHWSGNEQMTKYEMACAIADAFNLPSSHLRPITDSPVLGAQRPRNAQLDCSKLETLGIGQRTPFRIGIKESLWPFLIDKRWRQTVFH
As for B1, in data set [1], the MAT catalytic activity result is given as “no MAT catalytic activity”. Moreover, the entries for the “association / co-purification with E. coli MAT α” value in data set [2] (listed as recombinant MAT II β subunit protein) and in data set [2] (listed as recombinant human MAT II β subunit protein) were “associated spontaneously” and “co-purifying”, respectively. Moreover, the “effect on the Km for L-Met of the endogenous MAT II” value in data set [3] (expression in Cos-1 cells) is on record as “no effect”. The “effect on MAT (specific) activity” value in data set [3] (expression in Cos-1 cells, result in words) is reported as “increase”. For the same molecule, the Michaelis-Menten constant (Km) in data set [3] (extracts of Cos-1 cells transfected with β or co-transfected with α2 and β, single kinetic form, read-out: Km for L-Met) was 20 µM. Further, the “increase in MAT activity” value in data set [3] (transfected Cos-1 cell extracts compared to untransfected (or mock-transfected) cells) is recorded as approximately 2 fold.
